# From article PMC9864010
# Experiments:
# [1] = target: AP205 cVLP displaying SpyCatcher (SpyC-cVLP) (Acinetobacter phage AP205); assay: covalent SpyTag/SpyCatcher coupling shown by reduced SDS-PAGE with densitometry; FL PCSK9-SpyT in 100 mM HEPES, 500 mM NaCl, pH 7 mixed 1:1.2 (cVLP subunit per antigen) with SpyC-cVLP, HEPES to 250 mM and L-Arginine to 500 mM, overnight at 4 °C; coupling band on reduced SDS-PAGE; coupling efficiency by densitometry
# [2] = target: AP205 cVLP displaying SpyTag (SpyT-cVLP) (Acinetobacter phage AP205); assay: covalent SpyTag/SpyCatcher coupling shown by reduced SDS-PAGE with densitometry; SpyT-cVLP and SpyC-PCSK9 antigen mixed in a 1:2 molar ratio in PBS, pH 7.4, overnight at 4 °C; coupling band on reduced SDS-PAGE; coupling efficiency = coupled cVLP subunits/(coupled + uncoupled cVLP subunits) by densitometry
Substance,antigen coupling efficiency (percentage of binding sites per cVLP conjugated to an antigen) [1],antigen coupling efficiency (percentage of binding sites per cVLP conjugated to an antigen) [2]
FL PCSK9-SpyT (muPCSK9(35–694) R221S-SpyT),40%,
SpyC-PCSK9(156–227) (from UniProt Q80W65 156-227),,60%
SpyC-PCSK9(210–226) (from UniProt Q80W65 210-226),,80%
